Results as given in US20220220218A1 (JIANGSU HENGRUI MEDICINE, published 2022).

T1: cynomolgus monkey CD73/NT5E protein (His tag), Sino Biological Cat. No. 90192-C08H (cynomolgus monkey, UniProt A0A2K5V5U7 27-547)
T1 construct: also called cynomolgus monkey CD73 protein; cynoCD73; not shown: His tag
T1 sequence: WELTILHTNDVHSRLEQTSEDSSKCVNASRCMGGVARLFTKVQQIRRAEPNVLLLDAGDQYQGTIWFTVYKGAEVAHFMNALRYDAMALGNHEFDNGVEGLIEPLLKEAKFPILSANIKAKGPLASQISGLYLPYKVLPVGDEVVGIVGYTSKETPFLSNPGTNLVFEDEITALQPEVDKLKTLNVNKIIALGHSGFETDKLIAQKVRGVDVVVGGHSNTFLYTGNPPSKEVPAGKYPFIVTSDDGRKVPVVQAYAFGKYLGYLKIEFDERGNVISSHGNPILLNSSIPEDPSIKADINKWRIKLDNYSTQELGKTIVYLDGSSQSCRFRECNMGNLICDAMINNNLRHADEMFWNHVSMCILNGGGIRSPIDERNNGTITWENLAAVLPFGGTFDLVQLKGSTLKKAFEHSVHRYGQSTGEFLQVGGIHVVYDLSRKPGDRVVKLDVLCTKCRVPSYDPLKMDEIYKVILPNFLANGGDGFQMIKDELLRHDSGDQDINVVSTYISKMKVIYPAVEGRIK


Target: T1, cynomolgus monkey CD73/NT5E protein …
Test: ELISA; cynomolgus monkey CD73 coated on plate
Description: The cross-binding activity of anti-CD73 antibodies to cynomolgus monkey CD73 protein was tested by ELISA assay. The cynomolgus monkey CD73 fusion protein was directly coated onto a 96-well microtiter plate. The signal strength after the addition of the antibody was used to determine the binding activity of the antibody to cynomolgus monkey CD73. The specific experimental procedures were as follows:
Cynomolgus monkey CD73 (Sino Biological, Cat No. 90192-C08H) was diluted with PBS, pH7.4 (Shanghai BasalMedia, Cat No. B320) buffer to a concentration of 2 μg/ml, was added into the 96-well microtiter plate at 50 μl/well, and was incubated in an incubator at 37° C. for 2 hours. The liquid was discarded, 250 μl/well blocking solution (5% skim milk diluted in PBS) was added, and incubated in an incubator at 37° C. for 3 hours or at 4° C. overnight (16-18 hours) for blocking. After the blocking was finished, the blocking solution was discarded, the plate was washed for 5 times with PBST buffer, 50 μl/well of various concentrations of each of the test antibodies (purified hybridoma antibodies or humanized antibodies, diluted with sample diluent) were added, and incubated in an incubator at 37° C. for 1 hour. After the incubation was finished, the plate was washed for 5 times with PBST, 50 μl/well of HRP-labeled goat anti-mouse secondary antibody (Jackson Immuno Research, Cat No. 115-035-003) or goat anti-human secondary antibody (Jackson Immuno Research, Cat No. 109-035-003) diluted with sample diluent was added, and incubated at 37° C. for 1 hour. The plate was washed for 5 times with PBST, 50 μl/well of TMB chromogenic substrate (KPL, Cat No. 52-00-03) was added, incubated at room temperature for 5-10 min, and 50 μl/well of 1M H₂SO₄ was added to stop the reaction. The absorbance value was read by a microplate reader (Molecular Devices, VERSA max) at a wavelength of 450 nm, and the data was analyzed with GraphPad Prism 5. The binding of anti-CD73 antibody to monkey CD73 was calculated as EC50 value.

EC50 [nM]	Binder
0.064	Hab110.21 (antibody, human IgG1, kappa, V domains shown, also called humanized antibody of mab110) VH: EVQLVQSGAEVKKPGASVKVSCKASGYTFTSYTMHWVRQAPGQRLEWMGYINPNSFYIEYNQKFKDRVTITRDTSASTAYMELSSLRSEDTAVYYCARGDYDLFYDMDNWGQGTTVTVSS VL: DIQMTQSPSSLSASVGDRVTITCRASQDIGNSLNWLQQKPGKAIKRLIYATFRLDSGVPSRFSGSRSGTEYTLTISSLQPEDFATYYCQQYASFPWTFGGGTKVEIKR
0.033	Hab127.31d (antibody, human IgG1, kappa, V domains shown, also called humanized antibody of mab127) VH: EVQLVQSGAEVKKPGASVKVSCKASGYTFTAYFMNWVRQAPGQGLEWMGRIYHNKGDTFYSQKFKGRVTMTVDKSTSTVYMELSSLRSEDTAVYYCATSYVGDWGQGTTVTVSS VL: DIQMTQSPSSLSASVGDRVTITCRASQDIGDSLNWLQQKPGGALKRLIYATSSLDSGVPSRFSGSGSGTEYTLTISSLQPEDFATYYCLQYASFPWTFGGGTKVEIKR
0.033	Hab108.64 (antibody, human IgG1, kappa, V domains shown, also called humanized antibody of mab108) VH: EVTLKQSGPGLVKPTETLTLTCTVSGFSLSSYGIQWVRQPPGKGLEWLGVIWSGGSADYNAAFISRLTISKDTSKSQVVLTMTNMDPVDTATYYCAGQYGSVWGQGTLVTVSS VL: DIQMTQSPSSLSASVGDRVTITCRASQDIGDRLNWLQQKPGGAIKRLIYATSSLDSGVPKRFSGSGSGTEYTLTISSLQPEDFATYYCLQYAGSWTFGGGTKVEIKR
